We go through 72 sequences from the supplement of paper PMC10567573.

± gives the standard deviation.

The series in a line: protein stability index of a GFP-peptide fusion (GPS, HEK-293T) (PSI 1-6); higher = more stable.
The mark [1] stands for this setting: treatment: DMSO, c terminus: a fixed tail appended.
[2] abbreviates: treatment: MLN4924 1 uM, 8 h, c terminus: a fixed tail appended.
Setting [3] is: treatment: DMSO, c terminus: native.
The mark [4] stands for this setting: treatment: MLN4924 1 uM, 8 h, c terminus: native.
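Further: 24-mer peptide tiles fused after GFP, lentivirally expressed, FACS-sorted into six equal bins by GFP/DsRed ratio, decoded by Illumina sequencing, PSI is the read-weighted mean bin number.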

Turning to CLLGLGSLVLILSLSYTVLIVGRI [SLC2A12], the protein stability index reads like this: under setting [1], 3.06 ± 0.48; under setting [2], 3.26 ± 0.38.

On to CLTLATAVVQLYLALPPGAEHWTK [WAS], for which the protein stability index runs as follows: under setting [1], 2.85 ± 0.87; under setting [2], 2.77 ± 0.28.

For the sequence CPWHYLHLSGSHNTLAPTCFKAKL [RSPH3], the protein stability index reads like this: under setting [1], 2.35 ± 0.23; under setting [2], 2.59 ± 0.13.

For the sequence CQDSSGEVSCQCQLHPPRWYSRLQ, the protein stability index under setting [1] came to 2.38 ± 0.28 and the protein stability index under setting [2] is 2.81 ± 0.23.

For the sequence CSSPGVQACSLPASCCIDPREDGA [TSPAN10], the protein stability index reads like this: under setting [1], 4.687 ± 0.023; under setting [2], 4.6 ± 0.1.

As for CSVRPDASVSSHRFFGPNAEISQP [TCF25], the protein stability index was 3.57 ± 0.32 under setting [1] and 3.73 ± 0.092 under setting [2].

With CYNCEEEAMYHCCWNTSYCSIKCQ [ZMYND11], the protein stability index is, setting by setting: under setting [1], 2.61 ± 0.52; under setting [2], 2.79 ± 0.47.

For DAKARKQEIIKTTEQLIEAVNNGD [CAMK2B], the protein stability index is 5.27 ± 0.29 under setting [1] and 5.26 ± 0.19 under setting [2].

In turn, DALNAYVCKGLPQHEEICLGLFTL [INTS3] showed a protein stability index under setting [1] of 2.81 ± 0.64 and a protein stability index under setting [2] of 2.67 ± 0.74.

On to DANLDECIPATVRSSFANQGEICL [ALDH8A1], for which the protein stability index is, setting by setting: under setting [1], 4.08 ± 0.35; under setting [2], 4.19 ± 0.41.

On to DAPLHSVGYTTLVGNNHESWGWDL [SPSB1], for which the protein stability index under setting [1] amounted to 2.9 ± 0.16 and the protein stability index under setting [2] amounted to 2.85 ± 0.25.

For the sequence DATQEYKEKLQKCLEPLEQKLQEI [TRIM39], the protein stability index was 4.8 ± 0.055 under setting [1] and 5.02 ± 0.18 under setting [2].

In the case of DCAGSPQKPLCASDGRTFLSRCEF [SMOC2], the protein stability index turned out to be 3.05 ± 0.48 under setting [1] and 3.27 ± 0.36 under setting [2].

Turning to DCLQFYVNSTLKELRRLFLVQDLV [RTN1], the protein stability index is 2.99 ± 0.61 under setting [1] and 2.81 ± 0.76 under setting [2].

For the sequence DDVIVQGDIQELYDTTLALGHAAA [GLT8D2], the protein stability index runs as follows: under setting [1], 4.47 ± 0.39; under setting [2], 4.42 ± 0.088.

Regarding DFALHYCLHHVHYLATEYLETHFR [GAN], the protein stability index runs as follows: under setting [1], 3.08 ± 0.24; under setting [2], 3.11 ± 0.23.

As for DFALINKLDIQCDLKTLSDDIKES [ATE1], the protein stability index was 4.15 ± 0.14 under setting [1] and 4.18 ± 0.39 under setting [2].

DFYRCGYCKNESGSRSNGMWAHSM [ATE1]: the protein stability index is 2.56 ± 0.59 under setting [1] and 2.2 ± 0.13 under setting [2].

DGDKNNDGRIDFDEFLKMMEGVQ [TNNC2]: the protein stability index worked out at 4.63 ± 0.43 under setting [3] and 4.54 ± 0.42 under setting [4].

Regarding DGKLRLLTKLLASKSKEEVSSLIS [FEM1C], the protein stability index by setting is: under setting [1], 2.33 ± 0.28; under setting [2], 1.92 ± 0.39.

Take DGMLYILGGEDGEKELISMECYDI [GAN]: the protein stability index is, setting by setting: under setting [1], 2.05 ± 0.18; under setting [2], 2.26 ± 0.42.

For DIVEFVCKSGYHPTKSHSFRAMCQ [CFHR2], the protein stability index runs as follows: under setting [1], 2.49 ± 0.7; under setting [2], 2.09 ± 0.18.

For the sequence DKDDEEKPKIEDVGSDEEDDSGKD [HSP90AB1], the protein stability index runs as follows: under setting [1], 5.57 ± 0.34; under setting [2], 5.54 ± 0.062.

In the case of DKEGHLVCRIGDWLQERYEIVGNL [CLK3], the protein stability index by setting is: under setting [1], 2.8 ± 0.56; under setting [2], 2.89 ± 0.47.

For the sequence DKERAVLLQRRKRENMSDGDTSAT [KMT2E], the protein stability index reads like this: under setting [1], 5.27 ± 0.062; under setting [2], 5.39 ± 0.19.

As to DKLDGNELDLSLSDLNEVPVKELA [LRRC59], the protein stability index is 5.26 ± 0.093 under setting [1] and 5.34 ± 0.33 under setting [2].

Regarding DKPLMPYMRYSRKVWDQVKASNPD [SMARCE1], the protein stability index reads like this: under setting [1], 3.27 ± 0.53; under setting [2], 3.44 ± 0.17.

Regarding DLALDLGPQSRELTLKVLRSSSCG [C2CD2L], the protein stability index reads like this: under setting [1], 3.28 ± 0.18; under setting [2], 3.62 ± 0.34.

Turning to DLEELSLGPRDAGTRGRLESAQAT [ARFIP2], the protein stability index reads like this: under setting [1], 5.14 ± 0.083; under setting [2], 5.06 ± 0.1.

For the sequence DLSMKGGASTTSTTPSALSGEPPT [NOL4L], the protein stability index is, setting by setting: under setting [1], 5.16 ± 0.32; under setting [2], 5.28 ± 0.28.

Regarding DNSTMGYMMAKKHLEINPDHPIVE [HSP90AB1], the protein stability index runs as follows: under setting [1], 4.21 ± 0.21; under setting [2], 4.05 ± 0.28.

With DNWDEKKLEEVVNKKHGEAEKKKP [ZC3H15], the protein stability index runs as follows: under setting [1], 5.48 ± 0.48; under setting [2], 5.75 ± 0.25.

In turn, DPANCDYVIVSGAQRKEERWDMAD [YJU2B] returned a protein stability index under setting [1] of 4.74 ± 0.3 and a protein stability index under setting [2] of 4.63 ± 0.16.

With DPDEEHLKKSSQVPRTEAPAPASS [PDLIM7], the protein stability index runs as follows: under setting [1], 5.39 ± 0.17; under setting [2], 5.5 ± 0.25.

DPEDFEDAWKRPDALPGQSKRLAV [TLE6] registered a protein stability index under setting [1] of 5.08 ± 0.18 and a protein stability index under setting [2] of 4.83 ± 0.29.

With DPLSLLDDSKFPIEDTPLVPVSFI [PCDHGA10], the protein stability index was found to be 2.85 ± 0.49 under setting [1] and 2.97 ± 0.3 under setting [2].

As for DPSIFTAQPNTMLGRMFGSGREHN [BTBD10], the protein stability index was determined as 3.95 ± 0.27 under setting [1] and 3.79 ± 0.28 under setting [2].

In the case of DPVVNGERSGCALTDAVAPGNKGR [TCF25], the protein stability index by setting is: under setting [1], 5.21 ± 0.21; under setting [2], 5.32 ± 0.21.

For the sequence DRGDYYLEGYRDNAYKDLAWKHGN [PCMTD1], the protein stability index is, setting by setting: under setting [1], 3.18 ± 0.2; under setting [2], 3.29 ± 0.19.

Turning to DSKIVVPPLPGKALKRQLPFRGDE [SNX12], the protein stability index by setting is: under setting [1], 4.35 ± 0.21; under setting [2], 4.36 ± 0.1.

As to DSLLVVLDMDEGTLSFIVDGQYLG [SPSB4], the protein stability index is, setting by setting: under setting [1], 2.52 ± 0.53; under setting [2], 2.6 ± 0.69.

In the case of DSPSRSPSKVEVTEKTTTVLSESS [C2CD2L], the protein stability index was 5.59 ± 0.24 under setting [1] and 5.38 ± 0.19 under setting [2].

For DSVPFHLGWNSTERSLRLQARYHD [MYORG], the protein stability index under setting [1] stood at 3.59 ± 0.24 and the protein stability index under setting [2] worked out at 3.51 ± 0.17.

Turning to DTAEVYAAGKAEVVLGNIIKKKGW [KCNAB2], the protein stability index runs as follows: under setting [1], 3.71 ± 0.21; under setting [2], 3.86 ± 0.11.

For the sequence DVKVGGSKYGIINLQSLKTPTLKV [DCAF4], the protein stability index by setting is: under setting [1], 2.62 ± 0.2; under setting [2], 2.65 ± 0.28.

In the case of DYIIRNTDRGNDNWLIKYDCPMDS [PI4K2A], the protein stability index runs as follows: under setting [1], 2.81 ± 0.25; under setting [2], 2.88 ± 0.12.

On to DYPVQVAPLSNGLCCAFSTDGSVL [WSB1], for which the protein stability index is, setting by setting: under setting [1], 2.66 ± 0.27; under setting [2], 2.96 ± 0.32.

Consider DYPYSPPTFRFLTKMWHPNIYENG [UBE2R2], for which the protein stability index under setting [1] came out at 2.21 ± 0.41 and the protein stability index under setting [2] came out at 2.3 ± 0.13.

Take EAAGGDHETESTSDKETDIDDRYG [CDS1]: the protein stability index under setting [1] was 5.6 ± 0.09 and the protein stability index under setting [2] is 5.62 ± 0.22.

As to EAASSSSTLVEVTLGEVPAAESPD [MAGEA3], the protein stability index is, setting by setting: under setting [1], 5.41 ± 0.15; under setting [2], 5.49 ± 0.12.

In the case of EAPALPAPAAPMVSKGAESSRSSE [BRD3], the protein stability index is 5.56 ± 0.32 under setting [1] and 5.73 ± 0.25 under setting [2].

In the case of EAQLSLIRDIRRRGKNKMAAQNCR [NFE2L1], the protein stability index was found to be 3.61 ± 0.35 under setting [1] and 3.58 ± 0.22 under setting [2].

EAQTSGKERLLLSAAVPAGQTYVD [CHIT1]: the protein stability index worked out at 4.15 ± 0.41 under setting [1] and 4.3 ± 0.26 under setting [2].

EATSHYIIELLASDAGSPSLHKHL [PCDHGC5]: the protein stability index runs as follows: under setting [1], 2.08 ± 0.064; under setting [2], 2.12 ± 0.11.

In the case of EAWRLVEEGIVSPSDLDLVMSEGL [CRYL1], the protein stability index by setting is: under setting [1], 3.91 ± 0.058; under setting [2], 3.9 ± 0.16.

Take ECQLYPRRSQQQQVPVVDFQAELR [SNURF]: the protein stability index is 4.3 ± 0.18 under setting [1] and 4.31 ± 0.084 under setting [2].

Take EDDKLVVECVMKGVTSTRVYERA [FABP4]: the protein stability index came out at 3.03 ± 0.29 under setting [3] and 3.75 ± 0.42 under setting [4].

In turn, EDEGVDLSEGSSNEDEDLGPCEGP [SPANXN3] came in with a protein stability index under setting [1] of 5.39 ± 0.44 and a protein stability index under setting [2] of 5.41 ± 0.23.

For EDSLATVKVVLIPVGQEIVIPFKV [IQUB], the protein stability index is, setting by setting: under setting [1], 2.86 ± 1.3; under setting [2], 2.43 ± 0.98.

For EEALENGPKESLPVIAAPSMWTRP [ACBD3], the protein stability index under setting [1] was 4.64 ± 0.12 and the protein stability index under setting [2] is 4.47 ± 0.24.

Regarding EEERAFWMENNGHVAGEQMLEDGP [CCDC70], the protein stability index was 5.37 ± 0.35 under setting [1] and 5.2 ± 0.45 under setting [2].

Turning to EELAKKRFKDKSSEEAVREVHRLI [TPPP], the protein stability index is, setting by setting: under setting [1], 3.54 ± 0.24; under setting [2], 3.41 ± 0.27.

In the case of EELAYLKKNHEEEMKEFSSQLAGQ [KRT15], the protein stability index amounted to 5.22 ± 0.41 under setting [1] and 5.05 ± 0.28 under setting [2].

Take EELEFQYRRVNELLLSILNPTRQD [ZER1]: the protein stability index is 3.01 ± 0.26 under setting [1] and 3.04 ± 0.31 under setting [2].

Regarding EELLWRKVYYEVIQLIKTNKKHIH [SMG5], the protein stability index is, setting by setting: under setting [1], 2.8 ± 0.59; under setting [2], 2.4 ± 0.39.

Take EEMEEEEEEEEEEDEDDDSADMDE [FBXO3]: the protein stability index runs as follows: under setting [1], 5.57 ± 0.15; under setting [2], 5.59 ± 0.087.

EERFRPLTFHGLILRSQLVTLLVR [CLCN6]: the protein stability index under setting [1] is 2.79 ± 0.63 and the protein stability index under setting [2] was found to be 2.51 ± 0.36.

EERLKLSPSPSSRVTVSRASSSRS [LMNB1] gave a protein stability index under setting [1] of 4.94 ± 0.15 and a protein stability index under setting [2] of 5.03 ± 0.25.

EFLTKHLRADNAFMLLTQARLFDE [BTBD1] showed a protein stability index under setting [1] of 2.54 ± 0.25 and a protein stability index under setting [2] of 2.18 ± 0.36.

Consider EGAVKMGMPSSLAHRIAAQTLLGT [PYCR3], for which the protein stability index is, setting by setting: under setting [1], 3.08 ± 0.53; under setting [2], 3.39 ± 0.17.

Turning to EGSFNGSEKETMQFLNDRLASYLE [KRT33B], the protein stability index is, setting by setting: under setting [1], 3.43 ± 0.14; under setting [2], 3.34 ± 0.21.

Regarding EHGATLAVIDSEKDMNFLKRYAGR [CD69], the protein stability index is, setting by setting: under setting [1], 3.84 ± 0.34; under setting [2], 3.95 ± 0.27.
